# Several values for one entry are separate records, joined by “and”; a condition that tells them apart may be missing. Identical values can stand only once.
# Tests used:
# Test in all cases: cryo-EM structure; single-particle analysis of purified HFTV1 virions (DNA-filled and empty particles sorted by 2D classification) in 18% SW buffer (2.47 M NaCl, 89 mM MgCl2, 85 mM MgSO4, 56 mM KCl, 3 mM CaCl2, 48 mM tris-HCl, pH 7.2); focused refinements of head, turrets, portal, tail, baseplate and tail fibers
# [1] = target: baseplate hub gp44 of HFTV1 (Haloferax tailed virus 1 (HFTV1))
# [2] = target: baseplate-tail connector gp41 of HFTV1 (Haloferax tailed virus 1 (HFTV1))
# [3] = target: capsid stabilization protein gp18 of HFTV1 (Haloferax tailed virus 1 (HFTV1))
# [4] = target: head-tail connector gp26 of HFTV1 (Haloferax tailed virus 1 (HFTV1))
# [5] = target: major capsid protein gp19 of Haloferax tailed virus 1 (HFTV1) (Haloferax tailed virus 1 (HFTV1))
# [6] = target: portal interface protein gp21 of HFTV1 (Haloferax tailed virus 1 (HFTV1))
# [7] = target: portal protein gp13 of HFTV1 (Haloferax tailed virus 1 (HFTV1))
# [8] = target: tail completion protein gp29 of HFTV1 (Haloferax tailed virus 1 (HFTV1))
# [9] = target: tail fiber protein gp42 of HFTV1 (Haloferax tailed virus 1 (HFTV1))
# [10] = target: tail tube protein gp35 of HFTV1 (Haloferax tailed virus 1 (HFTV1))
# [11] = target: tape measure protein gp40 of HFTV1 (Haloferax tailed virus 1 (HFTV1))
# [12] = target: turret base protein gp30 of HFTV1 (Haloferax tailed virus 1 (HFTV1))
# [13] = target: turret head protein gp31 of HFTV1 (Haloferax tailed virus 1 (HFTV1))
substance,measurement,setting,value
baseplate hub gp44 of HFTV1 (natural protein),stoichiometry N,[1],3
baseplate-tail connector gp41 of HFTV1 (natural protein),stoichiometry N,[2],3
capsid stabilization protein gp18 of HFTV1 (natural protein),stoichiometry N,[3],3
head-tail connector gp26 of HFTV1 (natural protein),stoichiometry N,[4],12
major capsid protein gp19 of Haloferax tailed virus 1 (HFTV1) (natural protein),stoichiometry N,[5],5 and 6
portal interface protein gp21 of HFTV1 (natural protein),stoichiometry N,[6],5
portal protein gp13 of HFTV1 (natural protein),stoichiometry N,[7],12
tail completion protein gp29 of HFTV1 (natural protein),stoichiometry N,[8],6
tail fiber protein gp42 of HFTV1 (natural protein),stoichiometry N,[9],3
tail tube protein gp35 of HFTV1 (natural protein),stoichiometry N,[10],6
tape measure protein gp40 of HFTV1 (natural protein),stoichiometry N,[11],6
turret base protein gp30 of HFTV1 (from UniProt A0A410N6V5 1-115) (natural protein),stoichiometry N,[12],6
turret head protein gp31 of HFTV1 (natural protein),stoichiometry N,[13],3

# Reference: publication PMC12494034
